From PMC6597003 (ACS chemical biology, 2018)
Ends that are not written are not given here.

test system: EphA2; assay: not given; conditions: recently reported by the authors; cited from earlier work

Molecule | concentration required in cell-based assays to activate the receptor
CSCC[C@H](NC(=O)[C@H](CCSC)NC(=O)[C@@H]1CCCN1C(=O)[C@@H](NC(=O)[C@H](CO)NC(=O)[C@H](CC(=O)O)NC(=O)[C@@H]1CCCN1C(=O)[C@H](Cc1ccc(O)cc1)NC(=O)[C@H](C)NC(=O)[C@H](CO)NC(=O)[C@@H](N)Cc1ccc(O)cc1)C(C)C)C(=O)N[C@@H](CO)C(N)=O [YSA] | tripledigit micromolar concentration

biological target: ephrin type-A receptor 2 ligand-binding domain (UniProt P29317 23-202); assay: DELFIA displacement assay; conditions: not given
Sequence (P29317 23-202): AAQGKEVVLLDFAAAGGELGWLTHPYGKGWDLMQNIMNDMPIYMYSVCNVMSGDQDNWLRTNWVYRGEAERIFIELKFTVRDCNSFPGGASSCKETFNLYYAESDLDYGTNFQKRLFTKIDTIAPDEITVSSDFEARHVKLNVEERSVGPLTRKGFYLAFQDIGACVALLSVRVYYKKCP

IC50 [µM] | Molecule
> 500 | YDYVAVAGPAEY-NH2 [135A1 (1C1)]
> 200 | YSLYPDSVPFRP-NH2 [135D8]
> 100 | YSCYPDSVPFRP-NH2 [135D6]
> 100 | YSAYPLSVEFRP-NH2 [135A7]
> 100 | YSAYPDSVEMMS-NH2 [135B1]

The next lines start with the molecule.

Molecule | IC50 [µM]
YSVYPDSVPFRP-NH2 [135D7] | > 200
YSAYPLSVEMMS-NH2 [135B2] | > 200
FTAFPLGFEFRP-NH2 [135B8] | > 100
FTAFPLGFEMMS-NH2 [135B9] | > 100
